According to PMC6707239 (Scientific Reports, 2019):

Target: the molecule itself
Experiment: dynamic light scattering; Malvern Zetasizer Nano ZS, hsp60 (wild type or mutant) without nucleotide (APO); percent volume

| Protein | stoichiometry N |
| --- | --- |
| human mitochondrial hsp60 D3G mutant (MitCHAP-60) (natural protein, UniProt P10809 27-573, looked up, human mitochondrial hsp60 (HspD1), mature protein without the mitochondrial signal peptide, disease mutation D3G, cloned into pET-22b; numbers count on: the mature protein; Mutation found in patients with MitCHAP-60; also called D3G-hsp60; source: E. coli BL21 (DE3), purified (ammonium sulfate, anion-exchange, size-exclusion chromatography)) AKGVKFGADARALMLQGVDLLADAVAVTMGPKGRTVIIEQSWGSPKVTKDGVTVAKSIDLKDKYKNIGAKLVQDVANNTNEEAGDGTTTATVLARSIAKEGFEKISKGANPVEIRRGVMLAVDAVIAELKKQSKPVTTPEEIAQVATISANGDKEIGNIISDAMKKVGRKGVITVKDGKTLNDELEIIEGMKFDRGYISPYFINTSKGQKCEFQDAYVLLSEKKISSIQSIVPALEIANAHRKPLVIIAEDVDGEALSTLVLNRLKVGLQVVAVKAPGFGDNRKNQLKDMAIATGGAVFGEEGLTLNLEDVQPHDLGKVGEVIVTKDDAMLLKGKGDKAQIEKRIQEIIEQLDVTTSEYEKEKLNERLAKLSDGVAVLKVGGTSDVEVNEKKDRVTDALNATRAAVEEGIVLGGGCALLRCIPALDSLTPANEDQKIGIEIIKRTLKIPAMTIAKNAGVEGSLIVEKIMQSSSEVGYDAMAGDFVNMVEKGIIDPTKVVRTALLDAAGVASLLTTAEVVVTEIPKEEKDPGMGAMGGMGGGMGGGMF | 14 |
| human mitochondrial hsp60 V72I mutant (SPG13) (natural protein, UniProt P10809 27-573, looked up, human mitochondrial hsp60 (HspD1), mature protein without the mitochondrial signal peptide, disease mutation V72I, cloned into pET-22b; numbers count on: the mature protein; Mutation linked to SPG13; source: E. coli BL21 (DE3), purified (ammonium sulfate, anion-exchange, size-exclusion chromatography)) AKDVKFGADARALMLQGVDLLADAVAVTMGPKGRTVIIEQSWGSPKVTKDGVTVAKSIDLKDKYKNIGAKLIQDVANNTNEEAGDGTTTATVLARSIAKEGFEKISKGANPVEIRRGVMLAVDAVIAELKKQSKPVTTPEEIAQVATISANGDKEIGNIISDAMKKVGRKGVITVKDGKTLNDELEIIEGMKFDRGYISPYFINTSKGQKCEFQDAYVLLSEKKISSIQSIVPALEIANAHRKPLVIIAEDVDGEALSTLVLNRLKVGLQVVAVKAPGFGDNRKNQLKDMAIATGGAVFGEEGLTLNLEDVQPHDLGKVGEVIVTKDDAMLLKGKGDKAQIEKRIQEIIEQLDVTTSEYEKEKLNERLAKLSDGVAVLKVGGTSDVEVNEKKDRVTDALNATRAAVEEGIVLGGGCALLRCIPALDSLTPANEDQKIGIEIIKRTLKIPAMTIAKNAGVEGSLIVEKIMQSSSEVGYDAMAGDFVNMVEKGIIDPTKVVRTALLDAAGVASLLTTAEVVVTEIPKEEKDPGMGAMGGMGGGMGGGMF | 14 |
